Laboratory results as given in publication PMC4451147.

Experiments:
[1] = target: Tubulin purified from lamb brains (sheep (purified from lamb brains)); assay: ITC; stathmin (syringe, 50-200 uM) injected into tubulin (cell, 5-20 uM); no MTA; 37°C; 20 mM NaPi, 4 mM MgCl2, 0.1 mM GTP, pH 6.5; one set of sites model; apparent constants
[2] = target: Tubulin purified from lamb brains (sheep (purified from lamb brains)); assay: ITC; stathmin (syringe) injected into tubulin (cell); vinflunine (10 uM) in cell and syringe; 37°C; 20 mM NaPi, 4 mM MgCl2, 0.1 mM GTP, pH 6.5; one set of sites model; apparent constants

Ka [1]: 2.7e+06 M⁻¹ | dH (kcal/mole of stathmin) [1]: -7.5 | Ka [2]: 7.8e+06 M⁻¹ | dH (kcal/mole of stathmin) [2]: -30
B1: Human recombinant stathmin (natural protein)
chain: MASSDIQVKELEKRASGQAFELILSPRSKESVPEFPLSPPKKKDLSLEEIQKKLEAAEERRKSHEAEVLKQLAEKREHEKEVLQKAIEENNNFSKMAEEKLTHKMEANKENREAQMAAKLERLREKDKHIEEVRKNKESKDPADETEAD
